From paper doi:10.1101/2022.03.08.483475 (bioRxiv, 2022)
Where two headings read alike, the source gives them in different places.

B1: MukB (wild type) (natural protein, E. coli, UniProt P22523 1-1486, looked up)
chain: MIERGKFRSLTLINWNGFFARTFDLDELVTTLSGGNGAGKSTTMAAFVTALIPDLTLLHFRNTTEAGATSGSRDKGLHGKLKAGVCYSMLDTINSRHQRVVVGVRLQQVAGRDRKVDIKPFAIQGLPMSVQPTQLVTETLNERQARVLPLNELKDKLEAMEGVQFKQFNSITDYHSLMFDLGIIARRLRSASDRSKFYRLIEASLYGGISSAITRSLRDYLLPENSGVRKAFQDMEAALRENRMTLEAIRVTQSDRDLFKHLISEATNYVAADYMRHANERRVHLDKALEFRRELHTSRQQLAAEQYKHVDMARELAEHNGAEGDLEADYQAASDHLNLVQTALRQQEKIERYEADLDELQIRLEEQNEVVAEAIERQQENEARAEAAELEVDELKSQLADYQQALDVQQTRAIQYNQAIAALNRAKELCHLPDLTADCAAEWLETFQAKELEATEKMLSLEQKMSMAQTAHSQFEQAYQLVVAINGPLARNEAWDVARELLREGVDQRHLAEQVQPLRMRLSELEQRLREQQEAERLLADFCKRQGKNFDIDELEALHQELEARIASLSDSVSNAREERMALRQEQEQLQSRIQSLMQRAPVWLAAQNSLNQLSEQCGEEFTSSQDVTEYLQQLLEREREAIVERDEVGARKNAVDEEIERLSQPGGSEDQRLNALAERFGGVLLSEIYDDVSLEDAPYFSALYGPSRHAIVVPDLSQVTEHLEGLTDCPEDLYLIEGDPQSFDDSVFSVDELEKAVVVKIADRQWRYSRFPEVPLFGRAARESRIESLHAEREVLSERFATLSFDVQKTQRLHQAFSRFIGSHLAVAFESDPEAEIRQLNSRRVELERALSNHENDNQQQRIQFEQAKEGVTALNRILPRLNLLADDSLADRVDEIRERLDEAQEAARFVQQFGNQLAKLEPIVSVLQSDPEQFEQLKEDYAYSQQMQRDARQQAFALTEVVQRRAHFSYSDSAEMLSGNSDLNEKLRERLEQAEAERTRAREALRGHAAQLSQYNQVLASLKSSYDTKKELLNDLQRELQDIGVRADSGAEERARIRRDELHAQLSNNRSRRNQLEKALTFCEAEMDNLTRKLRKLERDYFEMREQVVTAKAGWCAVMRMVKDNGVERRLHRRELAYLSADDLRSMSDKALGALRLAVADNEHLRDVLRMSEDPKRPERKIQFFVAVYQHLRERIRQDIIRTDDPVEAIEQMEIELSRLTEELTSREQKLAISSRSVANIIRKTIQREQNRIRMLNQGLQNVSFGQVNSVRLNVNVRETHAMLLDVLSEQHEQHQDLFNSNRLTFSEALAKLYQRLNPQIDMGQRTPQTIGEELLDYRNYLEMEVEVNRGSDGWLRAESGALSTGEAIGTGMSILVMVVQSWEDESRRLRGKDISPCRLLFLDEAARLDARSIATLFELCERLQMQLIIAAPENISPEKGTTYKLVRKVFQNTEHVHVVGLRGFAPQLPETLPGTDEAPSQAS
B2: ParC subunit of topoisomerase IV (natural protein, E. coli, UniProt P0AFI2 1-752, looked up)
chain: MSDMAERLALHEFTENAYLNYSMYVIMDRALPFIGDGLKPVQRRIVYAMSELGLNASAKFKKSARTVGDVLGKYHPHGDSACYEAMVLMAQPFSYRYPLVDGQGNWGAPDDPKSFAAMRYTESRLSKYSELLLSELGQGTADWVPNFDGTLQEPKMLPARLPNILLNGTTGIAVGMATDIPPHNLREVAQAAIALIDQPKTTLDQLLDIVQGPDYPTEAEIITSRAEIRKIYENGRGSVRMRAVWKKEDGAVVISALPHQVSGARVLEQIAAQMRNKKLPMVDDLRDESDHENPTRLVIVPRSNRVDMDQVMNHLFATTDLEKSYRINLNMIGLDGRPAVKNLLEILSEWLVFRRDTVRRRLNYRLEKVLKRLHILEGLLVAFLNIDEVIEIIRNEDEPKPALMSRFGLTETQAEAILELKLRHLAKLEEMKIRGEQSELEKERDQLQGILASERKMNNLLKKELQADAQAYGDDRRSPLQEREEAKAMSEHDMLPSEPVTIVLSQMGWVRSAKGHDIDAPGLNYKAGDSFKAAVKGKSNQPVVFVDSTGRSYAIDPITLPSARGQGEPLTGKLTLPPGATVDHMLMESDDQKLLMASDAGYGFVCTFNDLVARNRAGKALITLPENAHVMPPVVIEDASDMLLAITQAGRMLMFPVSDLPQLSKGKGNKIINIPSAEAARGEDGLAQLYVLPPQSTLTIHVGKRKIKLRPEELQKVTGERGRRGTLMRGLQRIDRVEIDSPRRASSGDSEE
B3: MukF (wild type) (natural protein, E. coli, UniProt P60293 1-440, looked up)
chain: MSEFSQTVPELVAWARKNDFSISLPVDRLSFLLAVATLNGERLDGEMSEGELVDAFRHVSDAFEQTSETIGVRANNAINDMVRQRLLNRFTSEQAEGNAIYRLTPLGIGITDYYIRQREFSTLRLSMQLSIVAGELKRAADAAEEGGDEFHWHRNVYAPLKYSVAEIFDSIDLTQRLMDEQQQQVKDDIAQLLNKDWRAAISSCELLLSETSGTLRELQDTLEAAGDKLQANLLRIQDATMTHDDLHFVDRLVFDLQSKLDRIISWGQQSIDLWIGYDRHVHKFIRTAIDMDKNRVFAQRLRQSVQTYFDEPWALTYANADRLLDMRDEEMALRDEEVTGELPEDLEYEEFNEIREQLAAIIEEQLAVYKTRQVPLDLGLVVREYLSQYPRARHFDVARIVIDQAVRLGVAQADFTGLPAKWQPINDYGAKVQAHVIDKY
B4: acyl carrier protein (AcpP) found in MukB preparations (natural protein, E. coli, UniProt P0A6A8 1-78, looked up)
chain: MSTIEERVKKIIGEQLGVKQEEVTNNASFVEDLGADSLDTVELVMALEEEFDTEIPDEEAEKITTVQAAIDYINGHQA

Legend:
cross-linking = biological target: the molecule itself; test: cross-linking
MukB (wild type) [1] = biological target: B1; test: cross-linking
MukB (wild type) [2] = biological target: B1; test: cross-linking; remark: listed apart in the source
MukB (wild type) [3] = biological target: B1; test: co-purification, SDS-PAGE with Coomassie staining

B1: binds (cross-linking).

B2: binds (MukB (wild type) [1]).

B3: binds (MukB (wild type) [2]).

In the case of B4, the “stoichiometry N” value (MukB (wild type) [3]) is reported as 1 AcpP:MukB.
